{
  "source": "the nanobody polyreactivity screen of Harvey et al. (2022)",
  "assay": "yeast display, Sf9 membrane polyspecificity reagent, FACS + sequencing; frameworks hold sequencing errors",
  "procedure,_shortened": "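A nanobody's polyreactivity label depends on the gate it was sorted from. Yeast display cells were stained with 10% biotinylated, detergent-solubilized Sf9 membrane reagent for 1 hour at 4 °C, enriched on streptavidin microbeads and sorted by FACS. The low and high (top ~1%) gates were set on anti-HA fluorescence for expression and streptavidin fluorescence for reagent binding.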",
  "data": [
    {"sequence": "QVQLVESGGGLVQAGGSLRLSCAASGSTFDNYAMGWYRQAPGKERELVAAISYSGGSTHYADSVKGRFTISRDNAKNTVYLQMNSLKPEDTAVYYCAADVSGDKGSIHMNYWGQGTQVTVSS", "values": [
      {"measurement": "polyreactivity (PSR sort gate)", "value": "low polyreactivity"}
    ]},
    {"sequence": "QVQLVESGGGLVQAGGSLRLSCAASGSTFDPNAMGWYRQAPGKERELVASITSRGGSTYYADSVKGRFTISRDNAKNTVYLQMNSLKPEDTAVYYCAAVGGATYSWNGYSWYAWHNYWGQGTQVTVSS", "values": [
      {"measurement": "polyreactivity (PSR sort gate)", "value": "low polyreactivity"}
    ]},
    {"sequence": "QVQLVESGGGLVQAGGSLRLSCAASGSTFDPNTMGWYRQAPGKDRELVAAITSSTASTYYADSVKGRFTISRDNAKNTVYLQMNSLKPEDTAVYYCAADSEQDNLRYYRWVWYYYWGQGTQVTVSS", "values": [
      {"measurement": "polyreactivity (PSR sort gate)", "value": "low polyreactivity"}
    ]},
    {"sequence": "QVQLVESGGGLVQAGGSLRLSCAASGSTFDPYAMGWYRQAPGKERELVAAITSGGGTKYADSVKGRFTISRDNAKNTVYLQMNSLKPEDTAVYYCATDIRAEHGYWGQGTQVTVSS", "values": [
      {"measurement": "polyreactivity (PSR sort gate)", "value": "low polyreactivity"}
    ]},
    {"sequence": "QVQLVESGGGLVQAGGSLRLSCAASGSTFDPYAMGWYRQAPGKERELVAAITWGGGSTYADSVKGRFTISRDNAKNTVYLQMNSLKPEDTAVYYCAAEYYLWLFEYYVEYDYWGQGTQVTVSS", "values": [
      {"measurement": "polyreactivity (PSR sort gate)", "value": "high polyreactivity"}
    ]},
    {"sequence": "QVQLVESGGGLVQAGGSLRLSCAASGSTFDRYAMGWYRQAPGKERELVAAISWSAGRTYYADTVKARFTISRDYAKNTVYLQMNSLKPEDTAVYYCAADQIVSGTYDYYWGQGTQVTVSS", "values": [
      {"measurement": "polyreactivity (PSR sort gate)", "value": "low polyreactivity"}
    ]},
    {"sequence": "QVQLVESGGGLVQAGGSLRLSCAASGSTFDRYAMGWYRQAPGKERELVAAISWSGGSTYYADSVKGRFTISRDNAKNTVYLQMNSLKPEDTAVYYCARRYARITPVYAPLNYWGQGTQVTVSS", "values": [
      {"measurement": "polyreactivity (PSR sort gate)", "value": "high polyreactivity"}
    ]},
    {"sequence": "QVQLVESGGGLVQAGGSLRLSCAASGSTFDRYAMGWYRQAPGKERELVAAITGSGGRTYYADSVKGRFTISRDNAKNTVYLQMNSLKPEDTAVYYCAARRSGYYLYSVDYWGQGTQVTVST", "values": [
      {"measurement": "polyreactivity (PSR sort gate)", "value": "high polyreactivity"}
    ]},
    {"sequence": "QVQLVESGGGLVQAGGSLRLSCAASGSTFDRYAMGWYRQAPGNERELVAAISSSGGTTYYADSVKGRFTITRDNAKTTVYVQMNSLKPEDTAVYYCAAVRYYESRGGYDYWGQGPQVTVSS", "values": [
      {"measurement": "polyreactivity (PSR sort gate)", "value": "low polyreactivity"}
    ]},
    {"sequence": "QVQLVESGGGLVQAGGSLRLSCAASGSTFDSNDMGWYRQAPGKERELVAGITWSGASTYYADSVKGRFTISRDNAKNTVYLQMNSLKPEDTAVYYCAAGPWGTGHYVQGPVYYYRYDYWGQGTQVTVSS", "values": [
      {"measurement": "polyreactivity (PSR sort gate)", "value": "low polyreactivity"}
    ]},
    {"sequence": "QVQLVESGGGLVQAGGSLRLSCAASGSTFDSYAMGWYRQAPGKERELVAAISRSGGRTYYADSVKGRFTISRDNAKNTVYLQMNSLKPEDTAVYYCNAAYKRWVTPGYDAYDYWGQGTQVTVSS", "values": [
      {"measurement": "polyreactivity (PSR sort gate)", "value": "high polyreactivity"}
    ]},
    {"sequence": "QVQLVESGGGLVQAGGSLRLSCAASGSTFDSYAMGWYRQDPGKERELFAAITYSGGRTYYADSVKGRFTISRDNAKNTVYLQMNSLKPEDTAVYYCAATGVFRDEYWGQGTQVTVSS", "values": [
      {"measurement": "polyreactivity (PSR sort gate)", "value": "low polyreactivity"}
    ]},
    {"sequence": "QVQLVESGGGLVQAGGSLRLSCAASGSTFDSYRMGWYRQAPGKERELVASISSRGGSTYYADSVKGRFTISRDNAKNTVSLQMNSLKPEATAVYYCAADWLSWFHGYGMYYWGQGTQVTVSS", "values": [
      {"measurement": "polyreactivity (PSR sort gate)", "value": "low polyreactivity"}
    ]},
    {"sequence": "QVQLVESGGGLVQAGGSLRLSCAASGSTFDTNAMGWYRQPPGKERELVASISSAGSTNYADSVKGRFTISRDNAKNTVYLQMNSLKPEDTAVYYCAKYYGQFYPTTLGYWGQGTQVTVSS", "values": [
      {"measurement": "polyreactivity (PSR sort gate)", "value": "low polyreactivity"}
    ]},
    {"sequence": "QVQLVESGGGLVQAGGSLRLSCAASGSTFDTYAMGWYRQAPGKEMELVAVISSGGGTYYADSVKGRFTISRDNAKNTVYLQMNSLKPEDTAVYYCAADRPTPYGYESTYDYWGQGTQVTVSS", "values": [
      {"measurement": "polyreactivity (PSR sort gate)", "value": "low polyreactivity"}
    ]},
    {"sequence": "QVQLVESGGGLVQAGGSLRLSCAASGSTFDTYGMGWYIQAPGKERELDASISSRGGSTYYADSVEGRFTISRDNAKNSVYLQMNSLKPDDTAVYYCAADWLSWFHGYGMYYWGQGTKVTVSS", "values": [
      {"measurement": "polyreactivity (PSR sort gate)", "value": "low polyreactivity"}
    ]},
    {"sequence": "QVQLVESGGGLVQAGGSLRLSCAASGSTFDTYTRGWYRQAPGKERELVAAITTSGGSTYYADSVKGRFTISRDNAKNTVYLQMNSLKPEDTAVYYCAADFFPGGYPEMDYWGQGTQVTVSS", "values": [
      {"measurement": "polyreactivity (PSR sort gate)", "value": "high polyreactivity"}
    ]}
  ]
}
